These results are taken from US20020173629A1.

Test [1] concerns the target human EGF-r expressed on the surface of human carcinoma cells (A431, SW948) (human) (UniProt P00533). The experiment in a line: cell-based or functional assay.
Test [2] has the same target. The experiment in a line: inhibition of [125I]EGF binding to SW948 cells.
Test [3] addresses Soluble EGF-r purified from A431 cell membranes (Sigma, E-3641) (human) (UniProt P00533). The experiment in a line: BIAcore, solid phase, antigen immobilised at 228 RU.
For test [4], the target named is human EGF-r expressed on the surface of human carcinoma cells (A431, SW948) (human) (UniProt P00533). Kind of test: inhibition of [125I]EGF (0.1 nM) binding to A431 cells.

In test [1], “E7.6.3 antibody (secreted by the hybridoma E7.6.3)” displayed an IC50 of inhibition of A431 cell proliferation of 0.125 nM, an inhibition of EGF-induced tyrosine phosphorylation of EGFr in A431 cells of 133 nM and an inhibition of SW948 cell growth in vitro of 100%. This substance showed an IC50 in test [2] of 0.9 nM. The substance also came in with a Kd in test [3] of 0.057 nM. In addition, the IC50 in test [4] is 3 nM.
Consider murine monoclonal antibody 528, for which the IC50 of inhibition of A431 cell proliferation in test [1] came to 0.66 nM. Besides, the IC50 in test [4] was determined as 15.2 nM.

A word on the IC50: it is the concentration that inhibits the measured activity by half. The low end stands for greater potency in that assay, the high end for weaker potency in that assay. What is called Kd is the constant that tells how readily two partners part at equilibrium.
